In paper PMC5389574 (Nucleic Acids Research, 2016):

Molecular target: T1, recombinant Rpb4/Rpb7-6His (S. cerevisiae, UniProt P20433 1-221; P34087 1-171)
T1 sequence (looked up) 1: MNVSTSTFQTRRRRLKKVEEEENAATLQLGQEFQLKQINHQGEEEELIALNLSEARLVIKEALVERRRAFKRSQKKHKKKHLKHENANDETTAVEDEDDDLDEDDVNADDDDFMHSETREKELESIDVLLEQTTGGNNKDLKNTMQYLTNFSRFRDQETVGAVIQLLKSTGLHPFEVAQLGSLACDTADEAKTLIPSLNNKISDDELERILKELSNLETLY
T1 sequence (looked up) 2: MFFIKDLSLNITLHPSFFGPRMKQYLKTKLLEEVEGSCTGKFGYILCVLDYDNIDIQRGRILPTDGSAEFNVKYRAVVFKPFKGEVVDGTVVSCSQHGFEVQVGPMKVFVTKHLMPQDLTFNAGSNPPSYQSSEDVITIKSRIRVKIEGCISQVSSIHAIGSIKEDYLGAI
Assay: pull-down

B1: recombinant Sub1 (natural protein, S. cerevisiae, UniProt P54000 1-292, looked up)
chain: MSYYNRYRNKRRSDNGGGNLSNSNNNNGGMPSGLSASDAIFDLGKNKRVTVRQFRNINLIDIREYYLDSSTGEMKPGKKGISLTEDLYDELLKHRLNIDEALRRLGSKRPKTKMVRLLSDDEYEDDNNNDSTNNDKDKNGKDKNSPKKRREDKSKASNESHDLEPRSKKKKPAPPTLLPHEENIQNAEREANATLIIPGQAGRKQQEERKQKEKEEAEEAKAKAVAEQEKEAKAKEKIAEPEPEPVPTLQAKKEDIVSNINESKDANSSDEEFAQSLEAEMNKAEDDISEEE
binding result: binds
